# Measurements from patent US20230416402A1 (DRAGONFLY THERAPEUTICS, published 2023).
# B1: A49-F3′-TriNKET-Trastuzumab (bispecific antibody, human IgG1)
# heavy: EVQLVESGGGLVKPGGSLRLSCAASGFTFSSYSMNWVRQAPGKGLEWVSSISSSSSYIYYADSVKGRFTISRDNAKNSLYLQMNSLRAEDTAVYYCARGAPMGAAAGWFDPWGQGTLVTVSSASTKGPSVFPLAPSSKSTSGGTAALGCLVKDYFPEPVTVSWNSGALTSGVHTFPAVLQSSGLYSLSSVVTVPSSSLGTQTYICNVNHKPSNTKVDKKVEPKSCDKTHTCPPCPAPELLGGPSVFLFPPKPKDTLMISRTPEVTCVVVDVSHEDPEVKFNWYVDGVEVHNAKTKPREEQYNSTYRVVSVLTVLHQDWLNGKEYKCKVSNKALPAPIEKTISKAKGQPREPQVCTLPPSRDELTENQVSLTCLVKGFYPSDIAVEWESNGQPENNYKTTPPVLDSDGSFFLYSWLTVDKSRWQQGNVFSCSVMHEALHNHYTQKSLSLSPG
# chain: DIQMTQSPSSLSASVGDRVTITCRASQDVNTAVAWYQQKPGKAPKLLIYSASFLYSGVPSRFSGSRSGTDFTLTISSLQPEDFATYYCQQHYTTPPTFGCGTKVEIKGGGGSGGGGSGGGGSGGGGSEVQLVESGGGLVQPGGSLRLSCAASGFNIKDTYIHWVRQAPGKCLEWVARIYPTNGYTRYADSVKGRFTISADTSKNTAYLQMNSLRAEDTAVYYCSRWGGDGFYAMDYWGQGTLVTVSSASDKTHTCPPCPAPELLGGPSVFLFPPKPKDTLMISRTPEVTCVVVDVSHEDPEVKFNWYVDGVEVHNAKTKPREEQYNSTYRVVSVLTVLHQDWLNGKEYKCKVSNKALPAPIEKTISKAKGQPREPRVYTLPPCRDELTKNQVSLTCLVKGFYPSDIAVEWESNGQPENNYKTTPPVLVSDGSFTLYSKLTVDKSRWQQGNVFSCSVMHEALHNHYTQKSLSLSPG
# light: DIQMTQSPSSVSASVGDRVTITCRASQGISSWLAWYQQKPGKAPKLLIYAASSLQSGVPSRFSGSGSGTDFTLTISSLQPEDFATYYCQQGVSFPRTFGGGTKVEIKRTVAAPSPPSDEQLKSGTASVVCLLNNFYPREAKVQWKVDNALQSGNSQESVTEQDSKDSTYSLSSTLTLSKADYEKHKVYACEVTHQGLSSPVTKSFNRGEC
# Molecular target: HER2 (human, UniProt P04626 23-1255)
# Experiment: cell-based or functional assay
binder,measurement,value
B1,EC50 in KHYG-1-CD16V cell killing of Hs578T cells (DELFIA cytotoxicity assay),0.376 nM
same,EC50 in KHYG-1-CD16V cell-mediated cytolysis of BT-20 cells (DELFIA cytotoxicity assay),1.16 nM
same,EC50 in NK cell-mediated killing of MCF-7 cells (DELFIA cytotoxicity assay),0.878 nM
same,EC50 in NK cell-mediated lysis of ZR75-1 cells (DELFIA cytotoxicity assay),0.043 nM
same,"EC50 in enhancing NK cell-mediated cytolysis of SKBR-3 cells (DELFIA cytotoxicity assay, 3 healthy donors)",0.008 nM
same,EC50 in inducing NK cell-mediated lysis of 786-0 cells (DELFIA cytotoxicity assay),0.638 nM
same,EC50 in triggering NK cell-mediated killing of H661 cells (DELFIA cytotoxicity assay),0.054 nM
same,fold higher potency than trastuzumab in triggering NK cell-mediated killing of SKBR-3 cells,2.5 fold
